According to patent publication US20240369485A1, “FLUORESCENT SENSOR FOR MONITORING CALCIUM DYNAMICS” (priority 2021, published 2024):

How the values were obtained:
HeLa cells = experiment: Epifluorescence imaging of mitochondria Ca^2+ dynamics; type: cell-based; settings: 100 μM histamine
Experimental: Cell culture and transfection. HeLa cells were cultured and maintained in DMEM supplemented with 10% FBS and high glucose (4.5 g/L) at 37° C. Individual plasmids were transfected into cells using Lipofectamine 3000 (Life Technologies), following the manufacturer's instructions. Seed cells onto sterilized 22 mm×40 mm glass microscope slides in 6 cm dishes until about 70% confluency, the day of transfection. The next day, 2 μg of plasmid were mixed with transfection reagent in the reduced serum media Opti-MEM for 4-6 h at 37° C. The media was then replaced with 3 mL of fresh DMEM and incubated at 37° C. for 48 h.
Epifluorescence imaging of mitochondria Ca^2+ dynamics. The coverslips with HeLa Cells transfected with mitochondria indicators were mounted on a bath chamber and placed on the stage of a Leica DM6100B inverted microscope with a Hamamatsu cooled EM-CCD camera and illuminated with a Till Polychrome V Xenon lamp. Cells were illuminated at 569 nm, in real-time. Fluorescence images of samples were recorded as the concentration of ER Ca^2+ was perturbed by perfusion of 100 μM histamine.

[1] = Calcium (Ca^2+) binding assay: fluorescence/absorbance titration of purified protein
Experimental: Calcium (Ca^2+) binding assay. 10 μM protein samples of mApple, EGFP, and mCherry variants were titrated with different concentrations of Ca^2+. Data were fitted with a 1:1 binding equation. Fluorescence intensities were collected using a Spectrofluorimeter (Photon Technology International, Inc.) and the absorbance values of Ca^2+-free and Ca^2+-loaded forms were determined using a Shimadzu UV-1601 spectrophotome.
Ca^2+ binding assay. Fluorescence measurements of mApple variants with increasing Ca^2+ concentrations were done in order to obtain the affinity of the sensor for Ca^2+ in vitro. Samples of 10 μM mApple variants with 5 μM EGTA were prepared in triplicate in 1 mL volumes in 10 mM Tris, pH 7.4. The samples were placed in quartz fluorescence cuvettes, and metal ion was titrated into each sample, in a stepwise manner, using 0.1 M and 1 M metal stock solutions. The fluorescence response of the indicator to increasing Ca^2+ concentrations was monitored using a fluorescence spectrophotometer (Photon Technology International, Canada) with the Felix32 fluorescence analysis software. The absorbance spectra before and after titration were obtained using a Shimadzu UV-1601 spectrophotometer.

B1: mApple A145E/K198D/R216E: mApple variant, SEQ ID NO: 25; starting point of mitochondria indicator (protein)
chain: EENNMAIIKEFMRFKVHMEGSVNGHEFEIEGEGEGRPYEAFQTAKLKVTKGGPLPFAWDILSPQFMYGSKVYIKHPADIPDYFKLSFPEGFRWERVMNFEDGGIIHVNQDSSLQDGVFIYKVKLRGTNFPSDGPVMQKKTMGWEESEERMYPEDGALKSEIKKRLKLKDGGHYAAEVKTTYKAKKPVQLPGAYIVDIDLDIVSHNEDYTIVEQYEEAEGRHSTGGMDELYK
With B1 the “fluorescence intensity change of mitochondria targeted indicator” value (HeLa cells) was “no fluorescence change was observed”, the Fmax/Fmin ([1]; EGFP and mApple variants) was 3.80 and the Aholo/Aapo ([1]; absorbance at 569) was 1.60 (569). The Kd ([1]; in vitro, purified protein, read-out: Kd for Ca^2+ binding) was 290 ± 20 µM.
